Measured values published in IntAct's records for PubMed 14596906.

B1: Formin-binding protein 1 (Homo sapiens), Q96RU3 (parent)
chain: MSWGTELWDQFDNLEKHTQWGIDILEKYIKFVKERTEIELSYAKQLRNLSKKYQPKKNSKEEEEYKYTSCKAFISNLNEMNDYAGQHEVISENMASQIIVDLARYVQELKQERKSNFHDGRKAQQHIETCWKQLESSKRRFERDCKEADRAQQYFEKMDADINVTKADVEKARQQAQIRHQMAEDSKADYSSILQKFNHEQHEYYHTHIPNIFQKIQEMEERRIVRMGESMKTYAEVDRQVIPIIGKCLDGIVKAAESIDQKNDSQLVIEAYKSGFEPPGDIEFEDYTQPMKRTVSDNSLSNSRGEGKPDLKFGGKSKGKLWPFIKKNKLMSLLTSPHQPPPPPPASASPSAVPNGPQSPKQQKEPLSHRFNEFMTSKPKIHCFRSLKRGLSLKLGATPEDFSNLPPEQRRKKLQQKVDELNKEIQKEMDQRDAITKMKDVYLKNPQMGDPASLDHKLAEVSQNIEKLRVETQKFEAWLAEVEGRLPARSEQARRQSGLYDSQNPPTVNNCAQDRESPDGSYTEEQSQESEMKVLATDFDDEFDDEEPLPAIGTCKALYTFEGQNEGTISVVEGETLYVIEEDKGDGWTRIRRNEDEEGYVPTSYVEVCLDKNAKDS

Variants of: B1
Conditions: with tnks1_human TNKS
In the case of R515A, the “effect of a mutation on the interaction” value is reported as “decreasing interaction”.
For R515A;D519A, the “effect of a mutation on the interaction” value was “disrupting interaction”.
